Consider four molecules from paper PMC12209437, “Tailoring a novel colorectal cancer stem cell-targeted therapy by inhibiting the SMYD3/c-MYC axis” (Signal Transduction and Targeted Therapy, 2025).

First the molecules themselves.
B1: P14 ext2 (P36YFYCDEEENFYQQQQQSEL55) (peptide)
peptide: PYFYCDEEENFYQQQQQSEL
notes: numbers count on the 454-residue isoform; source: bought: custom purchased from Thermo Fisher Scientific
B2: P14 ext1 (E42EENFYQQQ50) (peptide)
peptide: EEENFYQQQ
notes: as for B1
B3: FLAG c-MYC M3 (aa 1-165) (domain or fragment, human, UniProt P01106-2 1-165, looked up)
chain: MDFFRVVENQQPPATMPLNVSFTNRNYDLDYDSVQPYFYCDEEENFYQQQQQSELQPPAPSEDIWKKFELLPTPPLSPSRRSGLCSPSYVAVTPFSLRGDNDGGGGSFSTADQLEMVTELLGGDMVNQSFICDPDDETFIKNIIIQDCMWSGFSAAAKLVSEKLA
notes: c-MYC, human, residues 1-165 of the 454-residue form; amplified from p3xFLAG CMV14 c-MYC-WT, itself made from pcDNA3-c-MYC (Addgene 16011); Vector p3xFLAG-CMV14 (Sigma E7908); also called p3xFLAG CMV14 c-MYC-M3
B4: full-length HIS-tagged SMYD3 recombinant protein (enzyme, human, UniProt Q9H7B4 1-428, looked up)
chain: MEPLKVEKFATAKRGNGLRAVTPLRPGELLFRSDPLAYTVCKGSRGVVCDRCLLGKEKLMRCSQCRVAKYCSAKCQKKAWPDHKRECKCLKSCKPRYPPDSVRLLGRVVFKLMDGAPSESEKLYSFYDLESNINKLTEDKKEGLRQLVMTFQHFMREEIQDASQLPPAFDLFEAFAKVICNSFTICNAEMQEVGVGLYPSISLLNHSCDPNCSIVFNGPHLLLRAVRDIEVGEELTICYLDMLMTSEERRKQLRDQYCFECDCFRCQTQDKDADMLTGDEQVWKEVQESLKKIEELKAHWKWEQVLAMCQAIISSNSERLPDINIYQLKVLDCAMDACINLGLLEEALFYGTRTMEPYRIFFPGSHPVRGVQVMKVGKLQLHQGMFPQAMKNLRLAFDIMRVTHGREHSLIEDLILLLEECDANIRAS
notes: SMYD3 (lysine methyltransferase SET and MYND Domain Containing 3), full length, from the plasmid pET28-MHL-SMYD3 (Addgene 32048); no species is printed for the Addgene plasmid; also called HIS-SMYD3; HIS-SMYD3 fusion protein; source: E. coli BL21 (DE3), purified (Dynabeads HIS-Tag Isolation and Pulldown)

What all share (details): both partners purified
Assay [1] concerns the target B4. Description: pull-down; competition assay: 500 ng HIS-SMYD3 and 200 ng untagged full-length c-MYC, 1 h at 4 °C, with escalating doses (0, 1, 5, 25, 125 µM) of P14, P14ext1 or P14ext2; precipitated on histidine beads, immunoblot with anti-c-MYC and anti-HIS. For orientation: Immunoblotting shows a protein as a band on a membrane.
The target in assay [2] is B4. The assay is described as follows: pull-down; HIS-SMYD3 incubated with recombinant c-MYC or FLAG c-MYC fragments for 1 h at 4 °C, precipitated with Dynabeads HIS-Tag Isolation and Pulldown, washed in buffer A (20 mM Tris-HCl pH 8, 150 mM KCl, 5 mM MgCl2, 0.2 mM EDTA, 10% glycerol, 0.1% NP-40, 1 mM DTT), immunoblot.
In assay [3] the target is T1, untagged human full-length c-MYC protein (human, UniProt P01106-2 1-454).
T1 construct: c-MYC, human, full length, untagged; also called c-MYC recombinant protein; untagged recombinant c-MYC protein; source: bought: Abcam ab169901, expressed in E. coli
The assay is described as above.

For the molecule B1, in assay [1], the binding result is reported as “binds”.

B2: the binding result in assay [1] is “binds”.

In the case of B3, in assay [2], the binding result was “binds”.

Regarding B4, the binding result in assay [3] is “binds”.
